Assays:
[1] = molecular target: Photosystem II subunit S (PsbS) of Physcomitrella patens, recombinant, detergent-refolded (Physcomitrella patens); assay: DOSY NMR; PsbS in FC-12, pH 5.0; 1H HN intensities, double-exponential fit
[2] = molecular target: Photosystem II subunit S (PsbS) of Physcomitrella patens, recombinant, detergent-refolded (Physcomitrella patens); assay: DOSY NMR; PsbS in FC-12, pH 7.5; 1H HN intensities, double-exponential fit
[3] = molecular target: Photosystem II subunit S (PsbS) of Physcomitrella patens, recombinant, detergent-refolded (Physcomitrella patens); assay: SEC; Superdex 200 5/150 GL; 100 mM sodium phosphate pH 7.5 with 1% OG; detection at 260 nm
[4] = molecular target: Photosystem II subunit S (PsbS) of Physcomitrella patens, recombinant, detergent-refolded (Physcomitrella patens); assay: SEC; Superdex 200 5/150 GL; 100 mM sodium phosphate pH 7.5 with 0.05% FC12; detection at 260 nm
[5] = molecular target: Photosystem II subunit S (PsbS) of Physcomitrella patens, recombinant, detergent-refolded (Physcomitrella patens); assay: SDS-PAGE without boiling; PsbS refolded in FC-12, pH 5.0; samples taken day 0 to day 90 after refolding; not boiled before loading
[6] = molecular target: Photosystem II subunit S (PsbS) of Physcomitrella patens, recombinant, detergent-refolded (Physcomitrella patens); assay: SDS-PAGE without boiling; PsbS refolded in FC-12, pH 7.5; samples taken day 0 to day 90 after refolding; not boiled before loading

Measured: stoichiometry N

Photosystem II subunit S (PsbS) of Physcomitrella patens, recombinant, detergent-refolded (natural protein)
2: all assays above

From PMC5680255
